Drawing on publication PMC11305080, this text covers Kd for one substance.

Experiment [1] has as its target HIT01-K21Q-R218E (cleavage-resistant variant of HIT01) (Pangasianodon hypophthalmus (iridescent shark) scaffold with human PCSK9 stretches). Put plainly: BLI.
In experiment [2] the target is human proprotein convertase subtilisin/kexin type 9 (PCSK9) (human) (UniProt Q8NBP7). The experiment in a line: BLI.

On to Alirocumab, for which the results for the Kd in experiment [1] and in experiment [2] were 2.78 nM and 1.71 nM, respectively.

As usually defined, the Kd is the equilibrium constant for the complex coming apart. Low readings indicate higher affinity, high ones lower affinity.
